In patent US9327022 (NATIONAL RESEARCH COUNCIL OF CANADA, dated 2016):

How the values were obtained:
[1] = target: T1, bovine serum albumin (bovine, UniProt P02769 25-607); experiment: SPR (Biacore 3000), immobilized BSA
T1 construct: also called BSA; Bovine albumin
Experimental: (§1) 1700 RUs of BSA (Sigma) were immobilized on research grad CM5-sensorchip (BIACORE). Ethanolamin blocked surface was used as a reference. Immobilizations were carried out at the protein concentrations of 50 µg/ml in 10 mM acetate pH 4.5 using amin coupling kit supplied by the manufacturer. Antibodies were passed through Superdex 75™ (GE Healthcare) column to separate monomer prior to BIACORE analysis.
(§2) In all instances, analyses were carried out at 25 C in HBS-E buffer (10 mM HEPES, 150 mM NaCl, and 3 mM EDTA, pH 7.4) supplemented with 0.005% surfactant P20 at a flow rate of 20 µl/min. The surfaces were regenerated with 100 mM HCl (3 seconds). Data were analyzed with BIAevaluation 4.1 software.

[2] = target: T1, bovine serum albumin; experiment: SPR (Biacore 3000), immobilized BSA; remark: listed apart in the source
Experimental: as §1, §2

[3] = target: T1, bovine serum albumin; experiment: SPR (Biacore 3000), immobilized BSA, 4 h dissociation time
Experimental: as §1, §2
(§3) Each binding was performed three times, and the obtained data were reproducible.

[4] = target: T2, goat serum albumin (goat); experiment: SPR (Biacore 3000), immobilized albumin
T2 construct: also called Goat albumin
T2 sequence (P85295 whole entry, looked up): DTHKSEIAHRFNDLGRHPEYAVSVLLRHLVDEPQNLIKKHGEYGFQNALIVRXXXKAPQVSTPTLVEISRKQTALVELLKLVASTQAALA
Experimental: as §1, §2

[5] = target: T3, murine serum albumin (murine, UniProt P07724 25-608); experiment: SPR (Biacore 3000), immobilized albumin
T3 construct: also called Murine albumin
Experimental: as §1, §2

[6] = target: T4, canine serum albumin (canine, UniProt P49822 25-608); experiment: SPR (Biacore 3000), immobilized albumin
T4 construct: also called Canine albumin
T4 sequence (P49822 25-608 limits assumed): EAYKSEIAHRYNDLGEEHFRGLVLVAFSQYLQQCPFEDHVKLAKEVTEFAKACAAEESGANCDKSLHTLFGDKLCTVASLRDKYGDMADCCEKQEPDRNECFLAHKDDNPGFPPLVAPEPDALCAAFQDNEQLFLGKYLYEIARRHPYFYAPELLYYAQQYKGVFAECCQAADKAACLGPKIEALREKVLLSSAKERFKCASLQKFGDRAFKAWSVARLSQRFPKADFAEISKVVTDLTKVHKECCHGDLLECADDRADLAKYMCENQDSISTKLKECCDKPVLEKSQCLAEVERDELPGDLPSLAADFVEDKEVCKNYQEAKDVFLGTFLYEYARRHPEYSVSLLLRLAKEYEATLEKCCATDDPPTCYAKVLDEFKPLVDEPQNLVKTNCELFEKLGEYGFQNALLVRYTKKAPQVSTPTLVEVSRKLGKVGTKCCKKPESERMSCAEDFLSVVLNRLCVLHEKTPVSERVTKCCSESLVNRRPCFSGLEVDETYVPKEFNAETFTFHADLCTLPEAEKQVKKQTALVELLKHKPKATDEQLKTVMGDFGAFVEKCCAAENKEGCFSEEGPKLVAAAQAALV
Experimental: as §1, §2

[7] = target: T1, bovine serum albumin; experiment: SPR (Biacore 3000), immobilized albumin
Experimental: as §1, §2

[8] = target: T5, porcine serum albumin (porcine, UniProt P08835 25-607); experiment: SPR (Biacore 3000), immobilized albumin
T5 construct: also called Porcine albumin
T5 sequence (P08835 25-607 limits assumed): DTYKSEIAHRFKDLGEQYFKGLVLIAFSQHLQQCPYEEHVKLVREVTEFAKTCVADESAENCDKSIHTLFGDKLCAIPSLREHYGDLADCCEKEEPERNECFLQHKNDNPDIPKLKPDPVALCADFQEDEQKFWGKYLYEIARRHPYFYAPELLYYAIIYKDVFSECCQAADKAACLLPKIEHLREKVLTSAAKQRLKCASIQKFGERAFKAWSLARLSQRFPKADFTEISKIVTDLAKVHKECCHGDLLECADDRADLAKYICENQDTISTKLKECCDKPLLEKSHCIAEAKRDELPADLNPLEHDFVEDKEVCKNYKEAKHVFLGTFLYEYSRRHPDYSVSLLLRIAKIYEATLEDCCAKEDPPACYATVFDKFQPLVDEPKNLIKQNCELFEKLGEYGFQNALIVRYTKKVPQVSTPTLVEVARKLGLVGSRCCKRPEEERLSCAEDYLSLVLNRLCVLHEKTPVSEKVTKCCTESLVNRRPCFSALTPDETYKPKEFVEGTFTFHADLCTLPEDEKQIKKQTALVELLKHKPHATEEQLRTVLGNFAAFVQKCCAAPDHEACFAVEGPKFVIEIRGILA
Experimental: as §1, §2

[9] = target: T6, guinea pig serum albumin (guinea pig); experiment: SPR (Biacore 3000), immobilized albumin
T6 construct: also called Guinea pig albumin
Experimental: as §1, §2

[10] = target: T7, sheep serum albumin (sheep, UniProt P14639 25-607); experiment: SPR (Biacore 3000), immobilized albumin
T7 construct: also called Sheep albumin
T7 sequence (P14639 25-607 limits assumed): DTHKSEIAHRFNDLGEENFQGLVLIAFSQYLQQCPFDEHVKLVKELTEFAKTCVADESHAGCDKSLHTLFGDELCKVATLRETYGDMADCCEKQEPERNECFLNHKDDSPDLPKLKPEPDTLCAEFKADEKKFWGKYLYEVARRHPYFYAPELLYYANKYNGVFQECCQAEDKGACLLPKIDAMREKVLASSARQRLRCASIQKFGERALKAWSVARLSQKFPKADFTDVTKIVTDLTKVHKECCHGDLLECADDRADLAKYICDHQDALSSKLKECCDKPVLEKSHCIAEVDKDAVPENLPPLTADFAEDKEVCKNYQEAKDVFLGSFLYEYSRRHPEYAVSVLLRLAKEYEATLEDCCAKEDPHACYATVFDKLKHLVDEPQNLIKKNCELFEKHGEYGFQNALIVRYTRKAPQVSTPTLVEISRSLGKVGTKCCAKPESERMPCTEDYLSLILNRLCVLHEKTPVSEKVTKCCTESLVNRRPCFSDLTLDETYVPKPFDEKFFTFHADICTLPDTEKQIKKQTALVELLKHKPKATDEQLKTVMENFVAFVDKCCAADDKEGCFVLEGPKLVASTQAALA
Experimental: as §1, §2

[11] = target: T8, human serum albumin (human, UniProt P02768 25-609); experiment: SPR (Biacore 3000), immobilized albumin; upper bound of the printed KD range
T8 construct: also called Human albumin
T8 sequence (P02768 25-609 limits assumed): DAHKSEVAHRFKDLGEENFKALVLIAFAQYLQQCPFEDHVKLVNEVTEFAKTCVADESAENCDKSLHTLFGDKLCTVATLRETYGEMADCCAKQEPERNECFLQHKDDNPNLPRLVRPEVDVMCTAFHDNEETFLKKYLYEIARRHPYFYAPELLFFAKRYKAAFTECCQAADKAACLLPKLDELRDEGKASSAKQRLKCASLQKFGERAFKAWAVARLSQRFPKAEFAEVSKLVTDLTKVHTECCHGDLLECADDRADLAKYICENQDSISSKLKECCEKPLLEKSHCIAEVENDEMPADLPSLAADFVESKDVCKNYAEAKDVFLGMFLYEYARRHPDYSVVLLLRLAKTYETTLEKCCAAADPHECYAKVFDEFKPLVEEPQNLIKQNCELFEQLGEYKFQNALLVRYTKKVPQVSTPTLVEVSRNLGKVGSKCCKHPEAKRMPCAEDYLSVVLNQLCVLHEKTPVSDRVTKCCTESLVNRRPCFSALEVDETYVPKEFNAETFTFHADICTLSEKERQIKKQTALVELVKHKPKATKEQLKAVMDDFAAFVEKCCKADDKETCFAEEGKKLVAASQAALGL

[12] = target: T8, human serum albumin; experiment: SPR (Biacore 3000), immobilized albumin; lower bound of the printed KD range
[13] = target: T1, bovine serum albumin; experiment: SPR (Biacore 3000), immobilized BSA, extended dissociation
Experimental: as §1, §2, §3

T1 sequence (P02769 25-607 limits assumed): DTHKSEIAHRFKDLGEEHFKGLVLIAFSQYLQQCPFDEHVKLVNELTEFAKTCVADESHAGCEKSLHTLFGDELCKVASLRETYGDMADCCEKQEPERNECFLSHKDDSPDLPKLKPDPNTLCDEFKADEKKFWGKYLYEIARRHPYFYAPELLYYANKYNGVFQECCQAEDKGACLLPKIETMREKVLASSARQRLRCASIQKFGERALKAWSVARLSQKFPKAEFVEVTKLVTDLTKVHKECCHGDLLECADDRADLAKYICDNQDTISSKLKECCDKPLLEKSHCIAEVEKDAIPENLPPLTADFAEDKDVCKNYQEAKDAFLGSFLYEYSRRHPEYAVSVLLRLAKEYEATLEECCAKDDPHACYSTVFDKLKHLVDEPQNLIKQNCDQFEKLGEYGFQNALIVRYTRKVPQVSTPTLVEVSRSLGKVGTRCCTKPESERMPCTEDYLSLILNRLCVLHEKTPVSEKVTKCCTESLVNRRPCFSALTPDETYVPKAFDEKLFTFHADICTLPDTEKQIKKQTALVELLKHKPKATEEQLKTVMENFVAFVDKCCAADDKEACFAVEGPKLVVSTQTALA

B1: BSA16 (VHH)
VHH: QVKLEESGGGLVQAGGSLRLSCAPSGRTFRTWRMGWFRQAPGKEREFVAAINLNTGNTYYVDSVKGRFTISGDYAKNTLYLQMNSLKPEDTAVYFCAARSPDSDYVPLSSIDYQYWGQGTQVTVSS
notes: also called sdAb BSA16; pBSA16 product
Binder B1 has a Kd [1] of 280 nM, a koff [1] of 0.27 s⁻¹ and a kon [1] of 1e+06 M⁻¹ s⁻¹.

B2: BSA8 (VHH)
VHH: QVKLEESGGGLAQAGGSLRLSCAASERTFIRYTIGWFRQAPGKEREFVGRVNWSGGDTYYADSVKGRFTISRDNAKTTVTLQMSSLKPEDTAVYSCAASPKWSEIPREYIYWGPGTQVTVSS
notes: also called sdAb BSA8; pBSA8 product
B2 showed a koff [2] of 0.005 s⁻¹ and a Kd [1] of ~100 nM.

B3: BSA12 (VHH)
VHH: QVKLEESGGGLVQVGDSLRLSCAASGRTFSNYTMAWFRQFPGKEREFVAVVSRGGGATDYADSVKGRFTISRDNAKNTMYLQMNSLKTDTAVYYCAAGTDLSYYYSTKKWAYWGQGTQVTVSS
notes: also called sdAb BSA12; pBSA12 product
B3 gave a koff [3] of 9e-06 s⁻¹, a Kd [4] of 240 nM and a koff [4] of 0.3 s⁻¹. It also gave a kon [4] of 1.2e+06 M⁻¹ s⁻¹, a Kd [5] of 59 nM and a koff [5] of 0.16 s⁻¹. For the same binder, the kon [5] was 2.7e+06 M⁻¹ s⁻¹, the Kd [6] was 1400 nM and the Kd [7] was 0.0036 nM. The koff [7] was 9e-06 s⁻¹, the kon [7] was 2.5e+06 M⁻¹ s⁻¹ and the Kd [8] was 380 nM. For the same binder, the koff [8] was 0.22 s⁻¹, the kon [8] was 680000 M⁻¹ s⁻¹ and the Kd [9] was 730 nM. The koff [9] was 0.6 s⁻¹, the kon [9] was 830000 M⁻¹ s⁻¹ and the Kd [10] was 1000 nM. For the same binder, the Kd [11] was < 500000 nM, the Kd [12] was > 10000 nM and the koff [13] was 1e-05 s⁻¹. For the same binder, the Kd [1] was 0.004 nM and the kon [1] was 2.5e+06 M⁻¹ s⁻¹.
